According to article PMC3735542, “Light Driven CO2 Fixation by Using Cyanobacterial Photosystem I and NADPH-Dependent Formate Dehydrogenase” (PLoS ONE, 2013):
Read-outs that look alike come from different tables or passages of the source.

Columns and labels:
Test in all cases: purified protein
[1] = test system: T1, NC(=O)c1ccc[n+]([C@@H]2O[C@H](COP(=O)(O)OP(=O)(O)OC[C@H]3O[C@@H](n4cnc5c(N)ncnc54)[C@H](OP(=O)(O)O)[C@@H]3O)[C@@H](O)[C@H]2O)c1; type: biochemical, Pseudomonas sp. 101; details: 500 mM formate, PBS, 0.05% Triton X-100
T1 construct: synthetic gene in pET22b (NdeI/NotI), C-terminal His tag kept, E. coli BL21(DE3), about 44 kDa

[2] = test system: T2, NC(=O)c1ccc[n+]([C@@H]2O[C@H](COP(=O)(O)OP(=O)(O)OC[C@H]3O[C@@H](n4cnc5c(N)ncnc54)[C@H](O)[C@@H]3O)[C@@H](O)[C@H]2O)c1; type: biochemical, Pseudomonas sp. 101; details: 500 mM formate, PBS, 0.05% Triton X-100
T2 construct: synthetic gene in pET22b (NdeI/NotI), C-terminal His tag kept, E. coli BL21(DE3), about 44 kDa

purified protein [3] = substrate: O=CO; details: 2 mM NADP+, PBS, 0.05% Triton X-100; same doubt on QN or QH
purified protein [4] = substrate: NC(=O)c1ccc[n+]([C@@H]2O[C@H](COP(=O)(O)OP(=O)(O)OC[C@H]3O[C@@H](n4cnc5c(N)ncnc54)[C@H](OP(=O)(O)O)[C@@H]3O)[C@@H](O)[C@H]2O)c1; type: biochemical, Arabidopsis thaliana
purified protein [5] = substrate: NC(=O)c1ccc[n+]([C@@H]2O[C@H](COP(=O)(O)OP(=O)(O)OC[C@H]3O[C@@H](n4cnc5c(N)ncnc54)[C@H](OP(=O)(O)O)[C@@H]3O)[C@@H](O)[C@H]2O)c1; type: biochemical, Solanum tuberosum; details: 500 mM formate, PBS, 0.05% Triton X-100; positions 197/199 from methods and Table 1, b33 prints 195/197

Pseudomonas FDH (PsFDH) (Pseudomonas sp. 101; D222Q/H224N)
Km [1]: 350 ± 10 µM | Km [2]: 1000 ± 600 µM | Vmax [2]: 0.55 µM/min

B1: Arabidopsis FDH (AtFDH) (Arabidopsis thaliana; D227Q/L229N) (protein)
chain: ASSGDSKKIVGVFYKANEYATKNPNFLGCVENALGIRDWLESQGHQYIVTDDKEGPDCELEKHIPDLHVLISTPFHPAYVTAERIKKAKNLKLLLTAGIGSDHIDLQAAAAAGLTVAEVTGSNVVSVAEDELMRILILMRNFVPGYNQVVKGEWNVAGIAYRAYDLEGKTIGTVGAGRIGKLLLQRLKPFGCNLLYHQRNQMAPELEKETGAKFVEDLNEMLPKCDVIVINMPLTEKTRGMFNKELIGKLKKGVLIVNNARGAIMERQAVVDAVESGHIGGYSGDVWDPQPAPKDHPWRYMPNQAMTPHTSGTTIDAQLRYAAGTKDMLERYFKGEDFPTENYIVKDGELAPQYR
notes: synthetic gene in pET22b (NdeI/NotI), C-terminal His tag kept, E. coli BL21(DE3); partly digested on purification; primer encodes CNLLYH-X-R-X-QMAPEL
Km (purified protein [3]): 96000 ± 14000 µM | Km (purified protein [4]): 910 ± 70 µM

B2: potato FDH (PoFDH) (Solanum tuberosum; D224Q/L226H) (protein)
chain: LQASPGPKKIVGVFYKANEYAEMNPNFLGCAENALGIREWLESKGHQYIVTPDKEGPDCELEKHIPDLHVLISTPFHPAYVTAERIKKAKNLQLLLTAGIGSDHVDLKAAAAAGLTVAEVTGSNTVSVAEDELMRILILVRNFLPGHHQVINGEWNVAAIAHRAYDLEGKTVGTVGAGRIGRLLLQRLKPFNCNLLYHQRHKMDSELENQIGAKFEEDLDKMLSKCDIVVINTPLTEKTKGMFDKERIAKLKKGVLIVNNARGAIMDTQAVVDACNSGHIAGYSGDVWYPQPAPKDHPWRYMPNQAMTPHISGTTIDAQLRYAAGTKDMLDRYFKGEDFPAENYIVKDGELAPQYR
notes: synthetic gene in pET22b (NdeI/NotI), C-terminal His tag kept, E. coli BL21(DE3); primer encodes CNLLYH-X-R-X-KMDSEL
Km (purified protein [5]): 620 ± 50 µM
